Molecular target: Arp2/3 complex (Bos taurus, UniProt A7MB62)
Test: single-filament microfluidics TIRF detachment assay

Kd [µM] | Binder
0.56 | VCA motif VCA (protein) PSDGDHQVPTTAGNKAALLDQIREGAQLKKVEQNSRPVSCSGRDALLDQIRQGIQLKSVADGQESTPPTPAPTSGIVGALMEVMQKRSKAIHSSDEDEDEDDEEDFEDDDEWED
0.07 | GMF (protein) SDSLVVCEVDPELKETLRKFRFRKETNNAAIIMKVDKDRQMVVLEDELQNISPEELKLELPERQPRFVVYSYKYVHDDGRVSYPLCFIFSSPVGCKPEQQMMYAGSKNRLVQTAELTKVFEIRTTDDLTETWLKEKLAFFR
